Common to all, as to details: both partners purified
Experiment [1] addresses T1, FLAG-tagged DR5 long isoform ECD (human).
T1 construct: human DR5 ECD, long isoform, residues 72-213; Dimer without peptide by cross-linking; multimers with peptide; also called FLAG-tagged DR5L ECD; recombinant DR5L ECD; source: SF21 (baculovirus), secreted, purified (HisTrapFF, SuperDex200); not shown: FLAG, C-terminal, kept
As to the kind of experiment: SEC; 25 μM recombinant DR5L ECD alone or pre-incubated overnight at 4°C with 100 or 400 μM fluorescein-conjugated peptide or 25 μM TRAIL; SuperDex200 10/300 GL, 30 mM HEPES pH 7.2, 150 mM NaCl; fractions on SDS-PAGE, fluorescence scan and Coomassie.

Experiment [2] deals with T2, Fc-tagged DR5 ectodomain (long isoform) (human, UniProt O14763 56-210).
T2 construct: DR5 extracellular domain, long isoform; 55 kDa on SDS-PAGE by the legend; also called Fc-tagged DR5 ECD; Fc-tagged DR5L ECD; source: recombinant, generated and purified at Genentech Inc
Kind of experiment: peptide or protein array; 18-residue peptides tiled on the array; 500 nM Fc-tagged DR5 ECD in 50 mM HEPES pH 7.2, 250 mM NaCl, 10% glycerol, 1 hr at room temperature; detected with anti-Fc.

In experiment [3] the target is T2, Fc-tagged DR5 ectodomain (long isoform). As to the kind of experiment: pull-down; Fc-tagged ECD held on Dynabeads Protein G, incubated with peptide in 20 mM HEPES pH 7.2, 100 mM KOAc, 0.2% Tween-20, 1 hr at RT; Coomassie-stained SDS-PAGE.

No end group written: not given here.

T1 sequence (chain, as listed by the source): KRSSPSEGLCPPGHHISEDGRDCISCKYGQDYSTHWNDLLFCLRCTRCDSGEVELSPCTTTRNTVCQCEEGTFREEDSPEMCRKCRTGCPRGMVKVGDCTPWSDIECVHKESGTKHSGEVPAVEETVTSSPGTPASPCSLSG

B1: fluorescein-conjugated MPZ-ecto peptide (peptide)
peptide: FTWRYQPEGGRDAISIFHYA
modifications: also: fluorescein-conjugated, site not given here
notes: stretch of the ectodomain of human myelin protein zero; also called fluorescein-labeled MPZ-ecto peptide; source: synthetic peptide
Turning to B1, the binding result in experiment [1] is recorded as “binds”.

B2: MPZ-ecto peptide (peptide)
peptide: FTWRYQPEGGRDAISIFHYA
notes: stretch of the ectodomain of human myelin protein zero; The array spots are 18-residue peptides; also called spots C18-C19 of the peptide array; source: synthetic peptide, GenScript (>95% purity); as spots C18-C19 on the peptide array of the MIT Biopolymers Laboratory
For B2, the binding result in experiment [2] is on record as “binds”.

B3: MPZ-ecto^VD peptide (peptide)
peptide: VSDDISFTWRYQPEGGRD
notes: stretch of the ectodomain of human myelin protein zero; source: synthetic peptide, GenScript (>95% purity)
For the molecule B3, in experiment [3], the binding result is listed as “binds”.
